The Kd is the concentration at which binding is half-saturated. The low end stands for higher affinity, the high end for lower affinity. In general, koff refers to the first-order rate constant of dissociation. Lower therefore signals slow dissociation. For orientation: kon means the second-order rate constant of association. For orientation: stoichiometry N means a count of units in the complex or per binding partner.

Values joined by “and” are separate entries in the source; they are usually repeats but may differ in a detail not shown here. Equal entries are not always repeated.

For test [1], the target named is Wildtype OmCI (Ornithodoros moubata) (UniProt Q5YD59). The experiment in a line: differential scanning calorimetry; C5 (CompTech) and OmCI mixed in 1:1.25 molar ratio, at least 6 h at 4 °C, PBS; heated 10-100 °C at 1 °C/min; n = 1. For orientation: Differential scanning calorimetry records heat flow against a reference as temperature is scanned.
For test [2], the target named is OmCI E141A/H164A (Ornithodoros moubata) (UniProt Q5YD59). The experiment in a line: SPR; single-cycle kinetics, Biacore 8K; OmCI amine coupled to a CM5 chip (~50 RU); C5 (CompTech) as analyte, 9-point 3-fold titration from 500 nM in HBS-EP, 40 ul/min, contact 230 s, dissociation 900 s; single-site binding model.
Test [3] addresses OmCI E141A/R47A/H164A/L140G (Ornithodoros moubata) (UniProt Q5YD59). The test is described as above.
Test [4] has as its target OmCI L140G (Ornithodoros moubata) (UniProt Q5YD59). Described as above.
The target of test [5] is OmCI E141A/R47A/L140G (Ornithodoros moubata) (UniProt Q5YD59). The description is as above.
Test [6] has as its target OmCI F36W (Ornithodoros moubata) (UniProt Q5YD59). The description is as above.
In test [7] the target is OmCI H117A (Ornithodoros moubata) (UniProt Q5YD59). The description is as above.
Test [8] deals with OmCI R47A (Ornithodoros moubata) (UniProt Q5YD59). The test is described as above.
Test [9] deals with OmCI H164A (Ornithodoros moubata) (UniProt Q5YD59). Described as above.
For test [10], the target named is OmCI E141A/R47A (Ornithodoros moubata) (UniProt Q5YD59). Described as above.
For test [11], the target named is OmCI E141A (Ornithodoros moubata) (UniProt Q5YD59). Described as above.
Test [12] concerns the target OmCI D167A (Ornithodoros moubata) (UniProt Q5YD59). The test is described as above.
Test [13] concerns the target OmCI M134G (Ornithodoros moubata) (UniProt Q5YD59). The description is as above.
Test [14] concerns the target OmCI E141A/L140G (Ornithodoros moubata) (UniProt Q5YD59). The test is described as above.
The target of test [15] is OmCI E141A/H164A (Ornithodoros moubata) (UniProt Q5YD59). Description: SPR; multicycle kinetics, Biacore 8K; OmCI biotinylated on the N-terminal AVI tag and captured on an SA streptavidin chip (20-100 RU); C5 as analyte, 7-point 3-fold titration from 250 nM in HBS-EP, 30 ul/min, contact 240 s, dissociation 3600 s; regeneration with 0.1 M citric acid pH 2.0; single-site binding model. Background: In SPR one partner is held on a chip, and binding of the other changes the refractive index at the surface.

Test [16] deals with OmCI E141A/R47A (Ornithodoros moubata) (UniProt Q5YD59). The test is described as above.
For test [17], the target named is Wildtype OmCI (Ornithodoros moubata) (UniProt Q5YD59). The test is described as above.
The target of test [18] is OmCI E141A (Ornithodoros moubata) (UniProt Q5YD59). The description is as above.
Test [19] concerns the target Complement component C5 from human serum (human (endogenous in human serum)).
Test [20] deals with T1, Complement component C5 (UniProt P01031 19-673; P01031 678-1676).
T1 construct: complement C5 beta chain; complement C5 alpha chain; Commercial C5 from CompTech; source: bought: CompTech
T1 sequence (P01031 19-673, chain 1 of 2): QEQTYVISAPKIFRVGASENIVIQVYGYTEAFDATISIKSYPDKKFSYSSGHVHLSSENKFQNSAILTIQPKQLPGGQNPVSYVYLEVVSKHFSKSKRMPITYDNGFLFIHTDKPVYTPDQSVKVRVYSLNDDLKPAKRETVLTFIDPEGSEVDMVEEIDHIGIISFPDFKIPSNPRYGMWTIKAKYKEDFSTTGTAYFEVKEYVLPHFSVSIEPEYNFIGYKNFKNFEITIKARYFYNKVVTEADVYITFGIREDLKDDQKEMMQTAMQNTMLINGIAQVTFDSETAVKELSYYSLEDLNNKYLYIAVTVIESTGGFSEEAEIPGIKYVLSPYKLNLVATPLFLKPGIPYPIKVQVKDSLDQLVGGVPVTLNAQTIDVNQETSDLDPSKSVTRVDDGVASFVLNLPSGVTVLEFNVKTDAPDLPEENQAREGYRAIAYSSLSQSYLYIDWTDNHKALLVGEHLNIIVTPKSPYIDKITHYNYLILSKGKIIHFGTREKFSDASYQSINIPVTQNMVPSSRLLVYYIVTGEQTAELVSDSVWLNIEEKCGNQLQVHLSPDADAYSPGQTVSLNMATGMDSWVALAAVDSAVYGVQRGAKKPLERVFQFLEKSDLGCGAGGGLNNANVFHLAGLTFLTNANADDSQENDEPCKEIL
T1 sequence (P01031 678-1676, chain 2 of 2): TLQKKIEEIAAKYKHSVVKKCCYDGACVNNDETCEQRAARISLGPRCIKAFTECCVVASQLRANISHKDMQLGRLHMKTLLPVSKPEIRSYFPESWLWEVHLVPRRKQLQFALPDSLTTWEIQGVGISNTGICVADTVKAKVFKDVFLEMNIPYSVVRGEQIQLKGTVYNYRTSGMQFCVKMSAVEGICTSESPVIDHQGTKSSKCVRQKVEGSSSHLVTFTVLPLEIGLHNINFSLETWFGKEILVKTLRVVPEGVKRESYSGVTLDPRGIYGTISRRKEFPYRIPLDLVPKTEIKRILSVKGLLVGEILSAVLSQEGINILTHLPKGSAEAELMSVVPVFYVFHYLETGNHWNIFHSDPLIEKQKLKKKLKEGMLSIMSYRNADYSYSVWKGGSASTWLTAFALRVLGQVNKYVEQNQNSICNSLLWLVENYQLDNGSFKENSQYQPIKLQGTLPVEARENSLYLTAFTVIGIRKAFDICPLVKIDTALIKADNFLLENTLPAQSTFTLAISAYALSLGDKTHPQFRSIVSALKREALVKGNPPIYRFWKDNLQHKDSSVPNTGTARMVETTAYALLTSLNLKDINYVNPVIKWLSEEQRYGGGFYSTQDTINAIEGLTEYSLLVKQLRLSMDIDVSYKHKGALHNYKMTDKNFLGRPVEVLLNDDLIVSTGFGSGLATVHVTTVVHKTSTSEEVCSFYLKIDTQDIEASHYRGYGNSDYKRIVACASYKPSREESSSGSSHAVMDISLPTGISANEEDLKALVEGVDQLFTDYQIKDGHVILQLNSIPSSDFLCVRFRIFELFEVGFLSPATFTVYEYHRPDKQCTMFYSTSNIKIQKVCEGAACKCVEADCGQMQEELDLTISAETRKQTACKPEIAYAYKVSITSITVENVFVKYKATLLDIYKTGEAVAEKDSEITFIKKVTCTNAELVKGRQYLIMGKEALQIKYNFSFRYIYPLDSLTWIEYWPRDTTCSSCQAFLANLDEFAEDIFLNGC
The experiment in a line: SPR; multicycle kinetics, Biacore 8K; biotinylated OmCI captured by its N-terminal AVI tag on an SA streptavidin chip; C5 as analyte, 7-point 3-fold titration from 250 nM in HBS-EP, 30 ul/min, contact 240 s, dissociation 3600 s; single-site binding model; values of the individual occasions (n=1 to n=4). Conditions: both partners purified.

In the case of “Complement component C5 (CompTech) (natural protein)”, in test [1], the ΔTm of the main C5 unfolding peak on complexing was found to be 8.6 °C. In addition, the approximate fold change in koff relative to WT OmCI in [2] stood at 197 fold; in [3], 5500 fold; in [4], 1 fold; in test [5], 1270 fold; in test [6] it was 2.6 fold; in [7], 1.1 fold. The approximate fold change in koff relative to WT OmCI was 4.1 fold in [8]; 3.5 fold in test [9]; 973 fold in [10]; 29.1 fold in test [11]; 2.4 fold in test [12]; 229 fold in test [13]. In addition, the approximate fold change in koff relative to WT OmCI in test [14] stood at 31.3 fold. Also, the Kd in test [15] was 4.09 nM; in test [16], 13.1 nM; in test [17] it was below 0.1 nM; in test [18], 0.709 nM. Also, the dissociation rate constant (koff) in [15] was 0.00406 s⁻¹; in test [16], 0.0318 s⁻¹; in [17], below 1e-05 s⁻¹; in test [18], 0.000304 s⁻¹. In addition, the kon in test [15] worked out at 1.13e+06 M⁻¹ s⁻¹; in [16], 3.01e+06 M⁻¹ s⁻¹; in test [17] it was 588000 M⁻¹ s⁻¹; in test [18], 481000 M⁻¹ s⁻¹. In addition, the stoichiometry N in [17] is below 1.

In [17], “Complement component C5 from human serum (natural protein)” had a Kd below 0.1 nM.

Take “OmCI E141A (from UniProt Q5YD59 19-168) (natural protein)”: the pIC50, alternative pathway (AP) complement activation ELISA (inhibition of MAC formation), OmCI titrated from 5 uM in human serum in test [19] was < 8.9 −log M.

As for “OmCI E141A/H164A (from UniProt Q5YD59 19-168) (natural protein)”, the pIC50, alternative pathway (AP) complement activation ELISA (inhibition of MAC formation), OmCI titrated from 5 uM in human serum in test [19] was 8.5 −log M.

Consider “OmCI E141A/R47A (from UniProt Q5YD59 19-168) (natural protein)”, for which, in [19], the pIC50, alternative pathway (AP) complement activation ELISA (inhibition of MAC formation), OmCI titrated from 5 uM in human serum was 8 −log M.

For the molecule “OmCI H164A (from UniProt Q5YD59 19-168) (natural protein)”, in test [19], the pIC50, alternative pathway (AP) complement activation ELISA (inhibition of MAC formation), OmCI titrated from 5 uM in human serum is < 8.8 −log M.

Consider “OmCI R47A (from UniProt Q5YD59 19-168) (natural protein)”, for which the pIC50, alternative pathway (AP) complement activation ELISA (inhibition of MAC formation), OmCI titrated from 5 uM in human serum in test [19] was < 9 −log M.

“Wildtype OmCI (from UniProt Q5YD59 19-168) (natural protein)”: the pIC50, alternative pathway (AP) complement activation ELISA (inhibition of MAC formation), OmCI titrated from 5 uM in human serum in [19] was < 9 −log M.

B1: Wild-type OmCI with N-terminal 10xHis, TEV site and AVI tag (natural protein)
chain: DSESDCTGSEPVDAFQAFSEGKEAYVLVRSTDPKARDCLKGEPAGEKQDNTLPVMMTFKNGTDWASTDWTFTLDGAKVTATLGNLTQNREVVYDSQSHHCHVDKVEKEVPDYEMWMLDAGGLEVEVECCRQKLEELASGRNQMYPHLKDC
modifications: biotin on the N-terminal AVI tag (Bir-A)
notes: OmCI of Ornithodoros moubata, UniProt Q5YD59, without its signal peptide; No TEV cleavage is described; also called wt OmCI; OmCI WT; source: ExpiHEK 293, transfected, purified from supernatant (nickel-Sepharose Excel); not shown: AVI tag, N-terminal, kept
As to B1, in test [20], the Kd is below 0.1 nM; the koff is below 1e-05 s⁻¹; the kon was 384000 M⁻¹ s⁻¹ and 400000 M⁻¹ s⁻¹ and 1.14e+06 M⁻¹ s⁻¹ and 432000 M⁻¹ s⁻¹.

B2: OmCI E141A with N-terminal 10xHis, TEV site and AVI tag (natural protein)
chain: DSESDCTGSEPVDAFQAFSEGKEAYVLVRSTDPKARDCLKGEPAGEKQDNTLPVMMTFKNGTDWASTDWTFTLDGAKVTATLGNLTQNREVVYDSQSHHCHVDKVEKEVPDYEMWMLDAGGLAVEVECCRQKLEELASGRNQMYPHLKDC
modifications: biotin on the N-terminal AVI tag (Bir-A)
notes: OmCI of Ornithodoros moubata, UniProt Q5YD59, without its signal peptide; also called OmCI WT E141A; source: ExpiHEK 293, transfected, purified from supernatant (nickel-Sepharose Excel); not shown: AVI tag, N-terminal, kept
For the molecule B2, in [20], the Kd was 0.896 nM and 0.395 nM and 0.707 nM and 0.837 nM; the koff is 0.000307 s⁻¹ and 0.000328 s⁻¹ and 0.000273 s⁻¹; the kon is 343000 M⁻¹ s⁻¹ and 830000 M⁻¹ s⁻¹ and 367000 M⁻¹ s⁻¹ and 386000 M⁻¹ s⁻¹.

B3: OmCI E141A/H164A with N-terminal 10xHis, TEV site and AVI tag (natural protein)
chain: DSESDCTGSEPVDAFQAFSEGKEAYVLVRSTDPKARDCLKGEPAGEKQDNTLPVMMTFKNGTDWASTDWTFTLDGAKVTATLGNLTQNREVVYDSQSHHCHVDKVEKEVPDYEMWMLDAGGLAVEVECCRQKLEELASGRNQMYPALKDC
modifications: biotin on the N-terminal AVI tag (Bir-A)
notes: OmCI of Ornithodoros moubata, UniProt Q5YD59, without its signal peptide; source: ExpiHEK 293, transfected, purified from supernatant (nickel-Sepharose Excel); not shown: AVI tag, N-terminal, kept
Consider B3, for which, in test [20], the Kd was 5.13 nM and 5.35 nM and 1.8 nM; the koff is 0.00438 s⁻¹ and 0.00489 s⁻¹ and 0.00292 s⁻¹; the kon is 855000 M⁻¹ s⁻¹ and 913000 M⁻¹ s⁻¹ and 1.62e+06 M⁻¹ s⁻¹.

B4: OmCI E141A/R47A with N-terminal 10xHis, TEV site and AVI tag (natural protein)
chain: DSESDCTGSEPVDAFQAFSEGKEAYVLVASTDPKARDCLKGEPAGEKQDNTLPVMMTFKNGTDWASTDWTFTLDGAKVTATLGNLTQNREVVYDSQSHHCHVDKVEKEVPDYEMWMLDAGGLAVEVECCRQKLEELASGRNQMYPHLKDC
modifications: biotin on the N-terminal AVI tag (Bir-A)
notes: as for B3
With B4, the Kd in test [20] was 17.6 nM and 7.26 nM and 9.55 nM and 18 nM.

The values above are taken from article PMC6130949, “The rational design of affinity-attenuated OmCI for the purification of complement C5” (The Journal of Biological Chemistry, 2018).
